{
  "source": "the nanobody polyreactivity screen of Harvey et al. (2022)",
  "data": [
    {"assay": "yeast display, Sf9 membrane polyspecificity reagent, FACS + sequencing; frameworks hold sequencing errors", "summary_of_the_method": "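Polyreactivity labels are assigned by the sorting gate from which each nanobody was recovered. The gates were low and high (top ~1%), set on anti-HA fluorescence for expression and streptavidin fluorescence for reagent binding. Before sorting, galactose-induced (36–48 hours) yeast display cells were stained for 1 hour at 4 °C with 10% biotinylated, detergent-solubilized Sf9 membrane reagent.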", "values": [
      {"sequence": "QVQLVESGGGLVQAGGSLRLSCAASGSTFYFNAMGWSRQAPGKERELVAAIDWSGGSTYYADSVKGRFTISRDNAKNTVYLQMNSLKPEDTAVYYCITVPNRARISTLYGYDYWGQGTQVTVSS", "polyreactivity (PSR sort gate)": "low polyreactivity"},
      {"sequence": "QVQLVESGGGLVQAGGSLRLSCAASGSTFYFNAMGWYRQAPGKERELVADINYSGTSTYYADSVKGRFTISRDNAKNTVYLQMTSLKPEDTAVYYCAKSLPSSNTSTSYDYWGQGTQVTVSS", "polyreactivity (PSR sort gate)": "low polyreactivity"},
      {"sequence": "QVQLVESGGGLVQAGGSLRLSCAASGSTFYFNAMGWYRQAPGKERELVAGIRYSGSSTYYADSVKGRFTISRDNAKNTVYLQMNSLKPEYTAVYYCAAERWWYTVRGYGYWGQGTQVTVSS", "polyreactivity (PSR sort gate)": "high polyreactivity"},
      {"sequence": "QVQLVESGGGLVQAGGSLRLSCAASGSTFYFNAMGWYRQAPGKERELVAGISSGGSTYYADSVKGRFTISRDNAKNTVYLQMNSLKPEDTAVYYCAADSDTFYYTGYDYDYWGQGTQVTVSS", "polyreactivity (PSR sort gate)": "low polyreactivity"},
      {"sequence": "QVQLVESGGGLVQAGGSLRLSCAASGSTFYGNAMGWYRQAPGKERELVAAISRGGGSTYYADSVKGRFTISRDNAKNTVYLQMNSLKPEDTAVYYCAATRYLHPWYYPYYYWGQGTQVTVSS", "polyreactivity (PSR sort gate)": "low polyreactivity"},
      {"sequence": "QVQLVESGGGLVQAGGSLRLSCAASGSTFYGNAMGWYRQAPGKERELVAAITWGDASTYYADSVKGRFTISRDNAKNTDYLQMNSLKPEDTAVYYCAVDESYGSSSDMDYWGQGTQVTVSS", "polyreactivity (PSR sort gate)": "low polyreactivity"},
      {"sequence": "QVQLVESGGGLVQAGGSLRLSCAASGSTFYGNAMVWYIQAPGKERELVAAIRWRGGRTYYADSVKGRFTNSRDNAKYTVYLKLNSLIPEDTAVYDCNALPGVSDTQYDRVGYWGQGTQVTVSS", "polyreactivity (PSR sort gate)": "high polyreactivity"},
      {"sequence": "QVQLVESGGGLVQAGGSLRLSCAASGSTFYGNAMVWYRQAPGKERELVARITTSGSTYYADSVKGRFTISRDNAKNTVYLQMNSLKPEDTAVYYCAKRGYGPSIRYYYWGHGTQVTVSS", "polyreactivity (PSR sort gate)": "high polyreactivity"},
      {"sequence": "QVQLVESGGGLVQAGGSLRLSCAASGSTFYGYAMGWYRQAPGKERELVAAISGGGSTNYADSVKGRFTISRDNAKNTVYLQMNSLKPEDTAVYYCAARTTVYRRYGRNYWGQGTQVTVSS", "polyreactivity (PSR sort gate)": "high polyreactivity"},
      {"sequence": "QVQLVESGGGLVQAGGSLRLSCAASGSTFYGYAMGWYRQAPGKERELVAAISSGGRTKYADSVKGRFTISRDTAKNTVYLQMNSLKPEDTAVYYCYVSYLVYRWKFGWSMDYWGQGTQVTLSS", "polyreactivity (PSR sort gate)": "low polyreactivity"},
      {"sequence": "QVQLVESGGGLVQAGGSLRLSCAASGSTFYGYAMGWYRQAPGKERELVAAISVRAGITYYADSVKGRFTISRDNAKNTVYLQMNSLKPEDTAVYYCAKDHWTTSYDEGDYWGQGTQVTVSS", "polyreactivity (PSR sort gate)": "low polyreactivity"},
      {"sequence": "QVQLVESGGGLVQAGGSLRLSCAASGSTFYGYAMGWYRQAPGKERELVAAISWSGASTYYADSVKGRFTISRDNAKNTVYLQMNSLKPDDTAVYYCNKRYRGYFNWPHGYWGQGTQVTVSS", "polyreactivity (PSR sort gate)": "high polyreactivity"},
      {"sequence": "QVQLVESGGGLVQAGGSLRLSCAASGSTFYGYAQGWYRQAPRKERELVAAISRTGTTNYADSVKGRFTISRDNAKNTVYLQMNSLKPEVTAVYYCNVRGYEVWYPLAYDYWGQGTQVTVSS", "polyreactivity (PSR sort gate)": "high polyreactivity"},
      {"sequence": "QVQLVESGGGLVQAGGSLRLSCAASGSTFYGYTMGWYRQAPGKERELVAAITSGDSTYYADSVKGRFTISRDNAKNTVYLQINSLKPEDTAVYYCATDWDVEYYWTEYYYWGQGTQVTVSS", "polyreactivity (PSR sort gate)": "high polyreactivity"},
      {"sequence": "QVQLVESGGGLVQAGGSLRLSCAASGSTFYHNAMGWYRQAPGKERELVAAITTSGGSTYYADSVKGRFTISRDNAKNTVYLQMNSLKPEDTAVYYCNVYRPYLAPYDYWGQGTQVTVSS", "polyreactivity (PSR sort gate)": "low polyreactivity"},
      {"sequence": "QVQLVESGGGLVQAGGSLRLSCAASGSTFYHNVMGWYLQAPGKERELVASIDTGDSTNYADSVKGRFTISRDNAKNTVYLQMNSLKPEDTAVYYCNADSYPALNKRGYDYWGQGTQVTVSS", "polyreactivity (PSR sort gate)": "low polyreactivity"},
      {"sequence": "QVQLVESGGGLVQAGGSLRLSCAASGSTFYINAMGWYRQAPGKERELVAAISWGGGSTYYADSVKGRFTISRDNAKNTVYLQMNSLKPEDTAVYYCAKLKGTQPNRYDYWGQGTQVTVSS", "polyreactivity (PSR sort gate)": "low polyreactivity"},
      {"sequence": "QVQLVESGGGLVQAGGSLRLSCAASGSTFYINAMGWYRQAPGKERVLVAAISWSGGSTYYADSVKGRFTISRDNAKNTVYLQMNSLKPEDTAVYYCAADWYLGWSLDYDYWGQGTQVTVSS", "polyreactivity (PSR sort gate)": "low polyreactivity"},
      {"sequence": "QVQLVESGGGLVQAGGSLRLSCAASGSTFYIYAMGWYRQAPGKERELVAAIDWNDGSTYYADSVKARFTISRDNAKNTVYLQMNSLKPEDTAVYYCAAAIYIYRGGTYDYWGQGTQVTVSS", "polyreactivity (PSR sort gate)": "high polyreactivity"},
      {"sequence": "QVQLVESGGGLVQAGGSLRLSCAASGSTFYIYAMGWYRQAPGKERELVAAISSVGRTSYADSVKGRFTISRDNAKNTVYLQMNSLKPEDTAVYYCAADKVDDSSYVPRTVFRYESDYWGQGTQVTVSS", "polyreactivity (PSR sort gate)": "low polyreactivity"},
      {"sequence": "QVQLVESGGGLVQAGGSLRLSCAASGSTFYIYAMGWYRQAPGKERELVAAITSRGTITSYADSVKGRFTISRDNAKNTVYLQMNSLKPEDTAVYYCAADYWQDGIAYWYDYWGQGTQVTVSS", "polyreactivity (PSR sort gate)": "low polyreactivity"},
      {"sequence": "QVQLVESGGGLVQAGGSLRLSCAASGSTFYIYAMGWYRQAPGKERELVAAITWRGGGTYYADSVKGRFTISRDNAKNTVYLQMNSLKPEDTAVYYCNADYPRSHYQYPYNYWGQGTQVTVSS", "polyreactivity (PSR sort gate)": "high polyreactivity"},
      {"sequence": "QVQLVESGGGLVQAGGSLRLSCAASGSTFYIYAMGWYRQAPGKERELVARISGSRGSTYYADSVKGRFTISRDNAKNTVYLQMNSLKPEDTAVYYCAADDIYKYYQYYALPSYRYDYWGQGTQVTVSS", "polyreactivity (PSR sort gate)": "low polyreactivity"},
      {"sequence": "QVQLVESGGGLVQAGGSLRLSCAASGSTFYIYGMGWYRQAPGKERELVAAISSSGGRTNYADSVKGRFTISRDNAKNTVYLQMNSLKPEDTAVYYCAARRWQGYAGWYDYWGQGTQVTVSS", "polyreactivity (PSR sort gate)": "high polyreactivity"},
      {"sequence": "QVQLVESGGGLVQAGGSLRLSCAASGSTFYIYTMGWYRQAPGKERELVATISWDGGNTYYADSVKGRFTISRDNAKNTVYLQMNSLKPEDTAVYYCARDSSIWSHGSWYDYWGQGTQVTVSS", "polyreactivity (PSR sort gate)": "low polyreactivity"},
      {"sequence": "QVQLVESGGGLVQAGGSLRLSCAASGSTFYKNAMGWYIQAPGKERELVAAISGSGGRTYYADSVKGRFTISRDTAKNTVYLQMNSLKPEDTAVYYCNAARAYYSLYYGLDYWGQGTQVTVSS", "polyreactivity (PSR sort gate)": "high polyreactivity"},
      {"sequence": "QVQLVESGGGLVQAGGSLRLSCAASGSTFYKYAMGWYRPAPGKERELVATINISGGSTSYADSVKGRFTISRDNAKNTVYLQMNSLKPQDTAVYYSNADAFYLGHDYWGQGTEVTVSS", "polyreactivity (PSR sort gate)": "high polyreactivity"},
      {"sequence": "QVQLVESGGGLVQAGGSLRLSCAASGSTFYKYAMGWYRQAPGKERELVAAISASGGSTYYADSVKVRFTISRDNAKNTVYLQMNSLNPEDTAVYYCAKASAYSAYADHDYYWGQGTQVTVSS", "polyreactivity (PSR sort gate)": "high polyreactivity"},
      {"sequence": "QVQLVESGGGLVQAGGSLRLSCAASGSTFYLNALGGYRQAPGKEREFVAAIDTGTGTYYADSVKGRFTISRDNAKNTVYLQMNRLKPEDTAVYYCAKDDLLVVRNVWFDYWGQGTQVTVSS", "polyreactivity (PSR sort gate)": "low polyreactivity"},
      {"sequence": "QVQLVESGGGLVQAGGSLRLSCAASGSTFYLNAMGWYRQAPGKERELVAAINSGDSTNYADSVKGRFTISRDNAKNSVYLQMNSLKPEDNAVYYCARDRYPSEGDYWGQGTQVTVSS", "polyreactivity (PSR sort gate)": "low polyreactivity"},
      {"sequence": "QVQLVESGGGLVQAGGSLRLSCAASGSTFYLNAMGWYRQAPGKERELVASITWSGGRTYYADSVKGRFTISRDNAKNTVYLQMNSLKPEDTAVYYCAADPVWGRYIKYDYWGQGTQVTVSS", "polyreactivity (PSR sort gate)": "high polyreactivity"},
      {"sequence": "QVQLVESGGGLVQAGGSLRLSCAASGSTFYLNAMGWYRQEPGKERELVAAISSGGRTYYADSVKGRFTISRDNAKNTVYFQKNSLKPEDTAVYYCAATRLYWKIFYGDGDYWGQGTQVTVSS", "polyreactivity (PSR sort gate)": "high polyreactivity"},
      {"sequence": "QVQLVESGGGLVQAGGSLRLSCAASGSTFYLNTMGWYRQAPGKERELVASISRSGGTTYYADSVKGRFTISRDNAKNTVYLQMNSLKPEDTAVYYCAKRYYFTHAYSRTFYYWGQGTQVTVSS", "polyreactivity (PSR sort gate)": "high polyreactivity"},
      {"sequence": "QVQLVESGGGLVQAGGSLRLSCAASGSTFYLYAMGWYRQAPGKERELVAAISWSDDTTYYADSVKGRFTISRDNAKNTVYLQMNSLKPEDTAVYYCATVPHYYYDYDYWGQGTQVTVSS", "polyreactivity (PSR sort gate)": "low polyreactivity"},
      {"sequence": "QVQLVESGGGLVQAGGSLRLSCAASGSTFYLYAMGWYRQAPGKERELVAAITRGGTTNYADSVKGRFTISRDNAKNTVYLQMNSLKPEDTAVYYCAKEVTTLLSLYEIVDRDYWGQGTQVTVSS", "polyreactivity (PSR sort gate)": "low polyreactivity"},
      {"sequence": "QVQLVESGGGLVQAGGSLRLSCAASGSTFYLYPMGWLRQAPGKERELVAAIRQSGGSTYYADSVKGRFTISRDNAKNTVYLQMNSLKPEDTAVYYCAARPSYRLGQRYYYWGQGTQVTVSS", "polyreactivity (PSR sort gate)": "high polyreactivity"},
      {"sequence": "QVQLVESGGGLVQAGGSLRLSCAASGSTFYLYTMGWYIQAPGKERELVAAISPSGGSTRYADSVKGRFTISRDNAKNTVYLQMNSLKPEDTAVYYCAARSTVYPRPHERDYWGQGTQVTVSS", "polyreactivity (PSR sort gate)": "high polyreactivity"},
      {"sequence": "QVQLVESGGGLVQAGGSLRLSCAASGSTFYNNAMGWYRQAPGKERELVAAISNVSTYYADSVKGRFTISRDNAKNTVYLQMNSLKPEDTAVYYCAARGLLWYYSWRYYYWGQGTQVTVSS", "polyreactivity (PSR sort gate)": "low polyreactivity"},
      {"sequence": "QVQLVESGGGLVQAGGSLRLSCAASGSTFYNNAMGWYRQAPGKERELVAAISNVSTYYADSVKGRFTISRDNAKNTVYLQMNSLKPEDTAVYYCAARVLLWYYSWRYYYWGQGTQVTVSS", "polyreactivity (PSR sort gate)": "low polyreactivity"},
      {"sequence": "QVQLVESGGGLVQAGGSLRLSCAASGSTFYNNAMGWYRQAPGKERELVAAITASGGRTYYADSVKGRFTISRDNAKNTVYLQMNSLKPEDTAVYYCAADGHAGYPIDEYYYWGQGTQVTVSS", "polyreactivity (PSR sort gate)": "high polyreactivity"}
    ]}
  ]
}
